Data from the RNAGym collection of RNA variant scans (doi:10.1073/pnas.2313332121).

B1: TPR t1 (parent)
chain: GACCAAUCUGCCCUCAGAGCUCGAGAACAUCUUCGGAUGCAGAGGAGGCAGGCUUCGGUGGCGCGAUAGCGCCAACGUCCUCAACCUCCAAUGCAUCCCACCACAUGAUGAUGCCUGAAGAGCCUUGGUUUUUUG

Variants of: B1
Experiment: polymerase ribozyme fitness, log enrichment relative to wild type (log ratio); higher = more active; in vitro selection for triplet polymerase activity
Summary of the method: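 Mutant libraries of each subunit of a heterodimeric triplet polymerase ribozyme were built by PCR and transcribed. Each library went through one round of in vitro selection in triplicate: annealing with biotinylated primer, partner subunit and triplets, frozen incubation at −7 °C, gel excision of extended constructs, streptavidin-bead capture and RT-PCR. Input and output libraries were Illumina-sequenced; only genotypes with ≥10 input reads and ≥1 read per output were kept. Fitness is log2(genotype enrichment/wild-type enrichment), using inverse-variance-weighted replicate averages.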
For GCCCAAUCUGCCCUCAGAGCUCGAGAACAUCUUCGGAUGCAGAGGAGGCAGGCUUCGGUGGCGCGAUAGCGUCAACGUCCUCAACCUCCAAUGCAUCCCACCACAUGAUGAUGCCUGAAUAGCCUUGGUUUUUUG [A2C C72U G120U], the “polymerase ribozyme fitness (log ratio)” value was -2.42.
For GCCCAAUCUGGCGUCAGAGCUCGAGAACAUCUUCGGAUGCAUAGGAGGCAGGCUUCGGUGGCGCGAUAGCGCCAGCGUCCACAACCUCCAAUGCAUCCCACCACAUGAUGAUGCCUGAAGAGCCUUGGUUUUUUG [A2C C11G C13G G42U A75G U81A], the “polymerase ribozyme fitness (log ratio)” value was -4.31.
In the case of GCCCAAUCUGCCCUCAGAGCUCGAGAACAUGUUCGGAUGCAGAGGAGGCAGGCUUCGGUGGCGCGAUAGCGCCAACGUUCUCAACCUCCAAUGCAUCCCACCACAUGAUGAUGCCUUAAGAGCCUAGGUUUUUUG [A2C C31G C79U G117U U126A], the “polymerase ribozyme fitness (log ratio)” value is reported as -4.9.
For GCCCAAUCUGCCCUCAGAGCUCGAGAACAUCUUCGGAUGCAGAGGAGGCAGGCUUCGGUGGCGCGAUAGCGCCAACGUACUCAACCUCCAAUGCAUCCCACCACAUGAUGAUGCCUGAAGAGCCUUGGCUUUUUG [A2C C79A U129C], the “polymerase ribozyme fitness (log ratio)” value was -2.39.
In the case of GCUCAAUCUGCCCUCAGAGCUCGAGAACAUCUUCGGAUGCAGAGGAGGCAGGCUUCGGCGGCGCGAUAGCGCCAACGUCCUCAACCUCCAAUGCAUCCCACCAAAUGAUGAUGCCUGAAGAGCCUUGGUUUUUUG [A2C C3U U59C C104A], the “polymerase ribozyme fitness (log ratio)” value is reported as -4.21.
With GCCCAAUCUGCCCUCAGAGCUCGAGAACAUCUUCGGUUGCAGAGGAGGCAGGCUUCGGUGGCGCGAUAGCGCUAACGUCCUCAACCUCCAAUACAUCCCACCACAUGAUGAUGCCUGAACAGCCUUGGUUUUUUG [A2C A37U C73U G93A G120C] the “polymerase ribozyme fitness (log ratio)” value was -2.44.
For GCCCAAUCUGCCUUCAGAGCUCGAGAACAUCUUCGGAUGCAGAGGAGGCAGGCUUCGGUGGCGCGAUAGCGCCAACGUCCUCAACCUCCAAUGCAUCCCACCACAUGAUAAUGCCUGAAGAGCCUUGGUUUUUUG [A2C C13U G110A], the “polymerase ribozyme fitness (log ratio)” value was -2.59.
With GCCCAAUCUGCCCUCAGAGCUCGAGAACAUCUUCGGAUGCAGAGGAGGCAGGCUUUGGUGGCGCGAUAGCGCCAACGUCCUCAACCUCCAAUGCAUCCCACCACAUGAUGAUGCCUGAAGAGCCUUGGUUUUUUG [A2C C56U] the “polymerase ribozyme fitness (log ratio)” value was -0.967.
With GCCCAAUCUGCCCUCAGAGCUCGAGAACAUCUUCGGAUGCAGAGGAGGCAGGUUUCGGUGGCGCGAUAGCGCCAACGUCCGCAACCUCCAAUGCAUCCCACCACAUGAUGAUGCCUGAAGAGCCUUGGUUUUUUG [A2C C53U U81G] the “polymerase ribozyme fitness (log ratio)” value was -4.15.
With GCCCAAUCUGCCCUCAGAGCUCGAGAACAUCUUCGGAUGCAGAGGAGGCAGGCUUCGGUGGCGCGAUAGCGCCAACGUCCUCAACCUCCAAUGCAUCCCCCCACAUGAAGAUGCCUGAAGAGCCUUGGUUUUUUG [A2C A100C U109A] the “polymerase ribozyme fitness (log ratio)” value was -6.4.
With GCCCAAUCUGCCCUCAGAGCUCGAGAACAUCUUCGGAUGCAGAGGAGGCAGGCUUCGGUGGUGCGAUAGCGCCAUCGUCCUCAACCUCCAAUGCAUCCCACCACAUGAUAAUGCCUGAAGAGCCUUGGUUUUUUG [A2C C62U A75U G110A] the “polymerase ribozyme fitness (log ratio)” value was -4.14.
In the case of GCCCAAUCUGCCCUCAGAGAUCGAGAACAUCUUCGGAUGCAGAGGAGGCAGGCUUCGGUGGCGCGAUAGCGCCAACGUUCUCAACCUCCAAUGCAUCCCACCACAUGAUGAUGCCUGAAGAUCCGUGGUUUUUUG [A2C C20A C79U G122U U125G], the “polymerase ribozyme fitness (log ratio)” value is reported as -3.43.
For GCCCAAUCUGCCCUCAGAGCUCGAGAACAUCUUCGGAUGCAGAGGAGGCAGGCUUCGGUGGCGCGAUAGCGCCAACGUCCUCAACCUCCAAUGCAUCCCACAACAUGAUGAUGCCUGAAGAGCCUUGGUUUUUUG [A2C C102A], the “polymerase ribozyme fitness (log ratio)” value was -3.35.
In the case of GCCCAAUCUGCCCUCAGAGCUCGAGAACAUCUUCGGAUGCAGAGGAGGCAGGCUUCGGUGGCGCGAUAGCGCCAACGUCCUCAACCUCCAAUGCAUCCCACCACAUGAUGAUGCUUGAAGAGCCUUGGUUUUUUG [A2C C115U], the “polymerase ribozyme fitness (log ratio)” value is reported as -2.66.
In the case of GCCCAAUCUGCCGUUAGAGCUCGAGAACAUCUUCGGAUGCAGAGGAGGCAGGCUUCGGUGGCGCGAUAGCGUCAACGUCCUCAACCUCCAAUGCAUCCCACCACAUGAUGAUGCCUGAAGAGCCUUGGUUUUUUG [A2C C13G C15U C72U], the “polymerase ribozyme fitness (log ratio)” value is reported as -4.37.
With GCCCAAUCUGCCCUCAGAGCUCGAGAACAUCUUCGGAUGCAGAGGAGGCAGGCUUCGGUGGCGCGAUAGCGCCAAUGUCCUCAACCUCCAAUGCAUCCCACCACAUGAUGAUGCCUGAAGAGCCUUGGUUUUUUG [A2C C76U] the “polymerase ribozyme fitness (log ratio)” value was -2.06.
For GCCCAAUCUGCCCUCAGAGCUCGAGAACAUCUUCGGUUGCAGAGGAGGCAGGCUUCGGUGGCGCGAUAGCGCCAACGGCCUCAACCUCCAAUGCAUCCCACCACAUGAUGAUGCCUGAAUAGCCUUGGUUUUUUG [A2C A37U U78G G120U], the “polymerase ribozyme fitness (log ratio)” value was -1.6.
With GCCCAAUCUGUCCUUAGAGCUCGAGAACAUCUUCGGAUGCAGAGGAGGCAGGCUGCGGUGGCUCGAUAGCGCCAACGUCCUCAACCUCCGAUGCAUCCCACCACAUGAUGAUGCCUGAAGGGCCUUGGUUUUUUG [A2C C11U C15U U55G G63U A90G A121G] the “polymerase ribozyme fitness (log ratio)” value was -1.56.
For GCCCAAUCUGCCCUCUGAGCUCGAGAACAUCUUCGGAUGCAGAGGAGGCAGGCUUCGGUGGCGCGAUAGCGACAACGUCCUCAACCUCCAAUGCAUCCCACCACAUGAUGAUGCCUGAAGAGCCAUGGUUUUUUG [A2C A16U C72A U125A], the “polymerase ribozyme fitness (log ratio)” value was -3.54.
With GCCCGACCUGCCAUCAGAGCUCGAGAACAUCUUCGGAUGCAGAGGAGUCUGGCUUCGGUGGCGCGAUAGCGCCAACGUCCUCAACCUCCAACGCAUUCCACCACAUGAUGAUGCCUGAAGAGUCUUGGUUUUUUG [A2C A5G U7C C13A G48U A50U U92C C97U C123U] the “polymerase ribozyme fitness (log ratio)” value was -4.24.
In the case of GCCCAAUCUGCCCUCAGAGCUCGAGAACAUCUUCGGAUGCAGAGGAGGCAGGAUUCGGUGGCGCGAUAGCGCCAACGUCCUCAACCUCCAAUGCAUCCCACCACAUGAUGAUGCCUGAAGAGCCUUGGUUUUUUG [A2C C53A], the “polymerase ribozyme fitness (log ratio)” value is reported as -1.9.
